Reference: patent publication US20140161799A1 (ARCH ONCOLOGY, published 2014)

T1: mouse CD47 (mouse, UniProt Q61735 19-303)
T1 construct: whole, on cells; also called CD47 on mouse red blood cells
T1 sequence (looked up): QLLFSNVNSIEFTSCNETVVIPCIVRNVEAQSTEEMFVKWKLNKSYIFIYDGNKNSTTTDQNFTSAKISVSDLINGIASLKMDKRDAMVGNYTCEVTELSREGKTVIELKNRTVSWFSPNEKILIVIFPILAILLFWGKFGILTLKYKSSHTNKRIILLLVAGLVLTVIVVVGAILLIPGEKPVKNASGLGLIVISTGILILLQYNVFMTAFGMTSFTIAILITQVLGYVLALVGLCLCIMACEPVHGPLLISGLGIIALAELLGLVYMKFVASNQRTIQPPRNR

T2: rat CD47 (rat, UniProt P97829 19-303)
T2 construct: whole, on cells; also called CD47 on rat red blood cells
T2 sequence (looked up): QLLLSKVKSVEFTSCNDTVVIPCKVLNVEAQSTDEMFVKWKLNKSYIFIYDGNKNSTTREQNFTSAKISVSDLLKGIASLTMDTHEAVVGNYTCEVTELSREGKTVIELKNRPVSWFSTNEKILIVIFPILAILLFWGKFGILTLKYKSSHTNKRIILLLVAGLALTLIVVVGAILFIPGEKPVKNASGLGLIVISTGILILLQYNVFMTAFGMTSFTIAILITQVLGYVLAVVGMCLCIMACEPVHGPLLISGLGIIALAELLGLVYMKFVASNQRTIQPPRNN

T3: pig CD47 (pig, UniProt Q9GKE8 19-303)
T3 construct: whole, on cells; also called CD47 on pig red blood cells
T3 sequence (looked up): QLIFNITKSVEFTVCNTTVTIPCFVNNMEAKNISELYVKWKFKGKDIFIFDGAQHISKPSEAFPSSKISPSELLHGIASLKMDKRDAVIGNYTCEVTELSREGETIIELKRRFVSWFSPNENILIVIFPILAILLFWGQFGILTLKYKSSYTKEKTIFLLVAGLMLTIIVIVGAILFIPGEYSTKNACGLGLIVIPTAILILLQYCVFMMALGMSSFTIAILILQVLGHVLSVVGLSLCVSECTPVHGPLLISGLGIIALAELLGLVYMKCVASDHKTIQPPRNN


What was measured:
Test in all cases: flow cytometry on RBCs, antibody 10 ng/ml
mouse CD47 = target: T1, mouse CD47
Experimental: (§1) Cross species reactivity of humanized antibodies of the present invention is determined using freshly isolated red blood cells (RBCs), which display CD47 on their surface, from human, mouse, rat, and pig according to the methods disclosed in Kamel et al. (2010) Blood. Transfus. 8(4):260-266.
(§2) RBCs are incubated for 60 minutes on ice with tissue culture supernatants containing the secreted humanized antibodies at a concentration of 10 ng/ml in a solution of phosphate buffered saline, pH 7.2, 2.5 mM EDTA (PBS+E). Cells are then washed with cold PBS+E, and incubated for an additional hour on ice with FITC labeled donkey anti-human antibody (Jackson Immuno Research Labs, West Grove, Pa.; Catalogue #709-096-149) in PBS+E. Cells are then washed with PBS+E, and antibody binding is analyzed using a BD FACSAria Cell Sorter (Becton Dickinson) or a C6 Accuri Flow Cytometer (Becton Dickinson). Antibody binding is quantitated by comparison of mean fluorescence values relative to that of chimeric antibody >VxP037-01LC (SEQ ID NO:7))/>VxP037-01HC (SEQ ID NO:57). The mean fluorescence value for each antibody is divided by the mean fluorescence value for the chimeric antibody.

rat CD47 = target: T2, rat CD47
Experimental: as §1, §2

pig CD47 = target: T3, pig CD47
Experimental: as §1, §2

human CD47 = target: T4, human CD47 (human, UniProt Q08722 19-323)
T4 construct: whole, on cells; also called CD47 on human red blood cells
Experimental: as §1, §2

T4 sequence (Q08722 19-323): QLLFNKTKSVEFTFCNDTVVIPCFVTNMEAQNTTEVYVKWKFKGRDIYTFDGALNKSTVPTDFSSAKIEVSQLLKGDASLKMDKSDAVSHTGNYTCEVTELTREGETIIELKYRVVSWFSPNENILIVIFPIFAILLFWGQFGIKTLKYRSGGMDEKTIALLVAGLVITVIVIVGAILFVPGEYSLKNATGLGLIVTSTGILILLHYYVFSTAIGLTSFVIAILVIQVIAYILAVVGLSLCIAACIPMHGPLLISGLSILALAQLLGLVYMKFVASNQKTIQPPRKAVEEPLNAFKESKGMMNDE

| Binder | mean fluorescence relative to chimeric antibody (mouse CD47) | mean fluorescence relative to chimeric antibody (rat CD47) | mean fluorescence relative to chimeric antibody (pig CD47) | mean fluorescence relative to chimeric antibody (human CD47) |
| --- | --- | --- | --- | --- |
| pVxK7b-037-hum08-LC/pVxK7b-037-hum08-HC (antibody, human IgG1, V domains shown, Full-length human IgG1/kappa in CHO supernatant; Variable entries end within framework 4 (...FGQG / ...WGQG); also called Clone 8) VH: QITLKESGPTLVKPTQTLTLTCTFSGYTFTNYYVFWIRQSPSRGLEWLGDINPVNGDTNFNEKFKNRFTISRDNAKNSLYLQMNSLRAEDTAVYYCARGGYTMDYWGQG VL: DIVMTQTPLSLPVTPGEPASISCRSSQSLVHSNGNTYLHWYQQKPGKAPKLLIYKVSYRFSGVPDRFSGSGSGTDFTLKISRVEAEDVGVYYCSQNTHVPRTFGQG | 0.7 fold of chimera | 1.2 fold of chimera | 0.8 fold of chimera | 0.7 fold of chimera |
| pVxK7b-037-hum23-LC/pVxK7b-037-hum23-HC (antibody, human IgG1, V domains shown, Full-length human IgG1/kappa in CHO supernatant; Variable entries end within framework 4 (...FGQG / ...WGQG); also called Clone 23) VH: QVQLQESGPGLVKPSQTLSLTCTVSGYTFTNYYVFWVRQARGQRLEWIGDINPVNGDTNFNEKFKNRLTISKDTSKNQVVLTMTNMDPVDTATYYCARGGYTMDYWGQG VL: DIVMTQTPLSLPVTPGEPASISCRSSQSLVHSNGNTYLHWYQQKPGKAPKLLIYKVSYRFSGVPDRFSGSGSGTDFTLKISRVEAEDVGVYYCSQNTHVPRTFGQG | 1.4 fold of chimera | 3.3 fold of chimera | 1.7 fold of chimera | 1.2 fold of chimera |
| pVxK7b-037-hum09-LC/pVxK7b-037-hum09-HC (antibody, human IgG1, V domains shown, Full-length human IgG1/kappa in CHO supernatant; Variable entries end within framework 4 (...FGQG / ...WGQG); also called Clone 9) VH: QVQLQESGPGLVKPSQTLSLTCTVSGYTFTNYYVFWVRQARGQRLEWIGDINPVNGDTNFNEKFKNRLTISKDTSKNQVVLTMTNMDPVDTATYYCARGGYTMDYWGQG VL: DVVMTQSPLSLPVTLGQPASISCRSSQSLVHSNGNTYLHWYQQKPGKAPKLLIYKVSYRFSGVPDRFSGSGSGTDFTLKISRVEAEDVGVYYCSQNTHVPRTFGQG | 1.4 fold of chimera | 3.7 fold of chimera | 1.6 fold of chimera | 1.2 fold of chimera |
| pVxK7b-037-hum10-LC/pVxK7b-037-hum10-HC (antibody, human IgG1, V domains shown, Full-length human IgG1/kappa in CHO supernatant; Variable entries end within framework 4 (...FGQG / ...WGQG); also called Clone 10) VH: QVQLQESGPGLVKPSQTLSLTCTVSGYTFTNYYVFWVRQARGQRLEWIGDINPVNGDTNFNEKFKNRLTISKDTSKNQVVLTMTNMDPVDTATYYCARGGYTMDYWGQG VL: DIVMTQTPLSLPVTPGEPASISCRSSQSLVHSNGNTYLHWYLQKPGQSPQLLIYKVSYRFSGVPDRFSGSGSGTDFTLKISRVEAEDVGVYYCSQNTHVPRTFGQG | 1.2 fold of chimera | 2.9 fold of chimera | 1.5 fold of chimera | 1.1 fold of chimera |
| pVxK7b-037-hum11-LC/pVxK7b-037-hum11-HC (antibody, human IgG1, V domains shown, Full-length human IgG1/kappa in CHO supernatant; Variable entries end within framework 4 (...FGQG / ...WGQG); also called Clone 11) VH: QVQLQESGPGLVKPGATVKISCKVSGYTFTNYYVFWVRQARGQRLEWIGDINPVNGDTNFNEKFKNRVTITADKSTSTAYMELSSLRSEDTAVYYCARGGYTMDYWGQG VL: EIVLTQSPATLSVSPGERATLSCRSSQSLVHSNGNTYLHWYQQKPGQAPRLLIYKVSYRFSGVPSRFSGSGSGTDFTFTISSLEAEDAATYYCSQNTHVPRTFGQG | 0.7 fold of chimera | 1.2 fold of chimera | 1.2 fold of chimera | 0.8 fold of chimera |
| pVxK7b-037-hum01-LC/pVxK7b-037-hum01-HC (antibody, human IgG1, V domains shown, Full-length human IgG1/kappa in CHO supernatant; Variable entries end within framework 4 (...FGQG / ...WGQG); also called Clone 1) VH: QVQLQESGPGLVKPSQTLSLTCTVSGYTFTNYYVFWVRQARGQRLEWIGDINPVNGDTNFNEKFKNRVTISADKSISTAYLQWSSLKASDTAMYYCARGGYTMDYWGQG VL: DIVMTQTPLSLPVTPGEPASISCRSSQSLVHSNGNTYLHWYQQKPGKAPKLLIYKVSYRFSGVPDRFSGSGSGTDFTLKISRVEAEDVGVYYCSQNTHVPRTFGQG | 1.7 fold of chimera | 2.7 fold of chimera | 1.3 fold of chimera | 1.1 fold of chimera |
